Data set [1] concerns HeLa Kyoto. As to the kind of experiment: solubility in G1/S (NP-40 vs SDS abundance) (log2 ratio); higher = more soluble. The conditions noted are these: cell cycle stage: G1/S.
Data set [2] concerns HeLa Kyoto. As to the kind of experiment: melting temperature (median over replicates), in situ; higher = more thermally stable.
Data set [3] has as its system HeLa Kyoto. In words: solubility change mitosis vs G1/S (difference of NP-40 vs SDS log2 ratios) (log2 ratio difference); higher = more soluble in mitosis.
For data set [4], the system named is HeLa Kyoto. As to the kind of experiment: thermal stability score vs G1/S (z-score of summed log2 fold changes over temperatures); higher = more thermally stable than in G1/S.
Where [5] appears, read: cell cycle stage: early G1 (4.5 h after nocodazole release).
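Throughout, for melting temperature (median over replicates), in situ: HeLa Kyoto cells synchronized by double thymidine or nocodazole block, proteins quantified by TMT10plex mass spectrometry, three independent biological replicates.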
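Throughout, for solubility change mitosis vs G1/S (difference of NP-40 vs SDS log2 ratios): synchronized HeLa Kyoto cells (double thymidine block for G1/S, nocodazole release for mitosis), protein amounts in NP-40 versus SDS lysates quantified by mass spectrometry, three biological replicates.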
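Throughout, for solubility in G1/S (NP-40 vs SDS abundance): HeLa Kyoto cells arrested at G1/S by double thymidine block, proteins quantified by TMT10plex mass spectrometry in mild NP-40 versus SDS extracts, three biological replicates.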
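Throughout, for thermal stability score vs G1/S (z-score of summed log2 fold changes over temperatures): synchronized HeLa Kyoto cells, proteins quantified by TMT10plex mass spectrometry, three biological replicates, mitosis taken 0.5 h after nocodazole release, G1/S directly after double thymidine block.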

For “MMCEVMPTISEAEGPPGGGGGHGSGSPSQPDADSHFEQLMVSMLEERDRLLDTLRETQETLALTQGKLHEVGHERDSLQRQLNTALPQEFAALTKELNVCREQLLEREEEIAELKAERNNTRLLLEHLECLVSRHERSLRMTVVKRQAQSPAGVSSEVEVLKALKSLFEHHKALDEKVRERLRVALERCSLLEEELGATHKELMILKEQNNQKKTLTDGVLDINHEQENTPSTSGKRSSDGSLSHEEDLAKVIELQEIISKQSREQSQMKERLASLSSHVTELEEDLDTARKDLIKSEEMNTKLQRDVREAMAQKEDMEERITTLEKRYLAAQREATSVHDLNDKLENEIANKDSMHRQTEDKNRQLQERLELAEQKLQQTLRKAETLPEVEAELAQRVAALSKAEERHGNIEERLRQMEAQLEEKNQELQRARQREKMNEEHNKRLSDTVDKLLSESNERLQLHLKERMAALEDKNSLLREVESAKKQLEETQHDKDQLVLNIEALRAELDHMRLRGASLHHGRPHLGSVPDFRFPMADGHTDSYSTSAVLRRPQKGRLAALRDEPSKVQTLNEQDWERAQQASVLANVAQAFESDADVSDGEDDRDTLLSSVDLLSPSGQADAHTLAMMLQEQLDAINKEIRLIQEEKENTEQRAEEIESRVGSGSLDNLGRFRSMSSIPPYPASSLASSSPPGSGRSTPRRIPHSPAREVDRLGVMTLLPPSREEVRDDKTTIKCETSPPSSPRALRLDRLHKGALHTVSHEDIRDIRNSTGSQDGPVSNPSSSNSSQDSLHKAPKKKGIKSSIGRLFGKKEKGRPGQTGKEALGQAGVSETDNSSQDALGLSKLGGQAEKNRKLQKKHELLEEARRQGLPFAQWDGPTVVVWLELWVGMPAWYVAACRANVKSGAIMSALSDTEIQREIGISNPLHRLKLRLAIQEIMSLTSPSAPPTSRTTLAYGDMNHEWIGNEWLPSLGLPQYRSYFMECLVDARMLDHLTKKDLRGQLKMVDSFHRNSFQCGIMCLRRLNYDRKELERKREESQSEIKDVLVWSNDRVIRWILSIGLKEYANNLIESGVHGALLALDETFDFSALALLLQIPTQNTQARAVLEREFNNLLVMGTDRRFDEDDDKSFRRAPSWRKKFRPKDIRGLAAGSAETLPANFRVTSSMSSPSMQPKKMQMDGNVSGTQRLDSATVRTYSC [PPFIA1]”, the “solubility in G1/S (log2)” value in data set [1] was found to be 0.137. Also, the melting temperature turned out to be 49.8 °C in data set [2] (cell cycle stage: G1/S) and 50.2 °C in data set [2] (cell cycle stage: mitosis). Further, in data set [3], the “solubility change mitosis (log2)” value was -0.0196. Besides, the thermal stability score in data set [4] (setting [5]) stood at 1.52; in data set [4] (cell cycle stage: mitosis), 1.91.
Take “MMEESGIETTPPGTPPPNPAGLAATAMSSTPVPLAATSSFSSPNVSSMESFPPLAYSTPQPPLPPVRPSAPLPFVPPPAVPSVPPLVTSMPPPVSPSTAAAFGNPPVSHFPPSTSAPNTLLPAPPSGPPISGFSVGSTYDITRGHAGRAPQTPLMPSFSAPSGTGLLPTPITQQASLTSLAQGTGTTSAITFPEEQEDPRITRGQDEASAGGIWGFIKGVAGNPMVKSVLDKTKHSVESMITTLDPGMAPYIKSGGELDIVVTSNKEVKVAAVRDAFQEVFGLAVVVGEAGQSNIAPQPVGYAAGLKGAQERIDSLRRTGVIHEKQTAVSVENFIAELLPDKWFDIGCLVVEDPVHGIHLETFTQATPVPLEFVQQAQSLTPQDYNLRWSGLLVTVGEVLEKSLLNVSRTDWHMAFTGMSRRQMIYSAARAIAGMYKQRLPPRTV [PRRC1]”: the “solubility in G1/S (log2)” value in data set [1] was 0.495. The melting temperature in data set [2] (cell cycle stage: G1/S) worked out at 58.8 °C; in data set [2] (cell cycle stage: mitosis), 58 °C. Besides, the “solubility change mitosis (log2)” value in data set [3] was -0.346. Also, the thermal stability score in data set [4] (setting [5]) was -1.27; in data set [4] (cell cycle stage: mitosis), -1.08.
Consider “MMEGLDDGPDFLSEEDRGLKAINVDLQSDAALQVDISDALSERDKVKFTVHTKSSLPNFKQNEFSVVRQHEEFIWLHDSFVENEDYAGYIIPPAPPRPDFDASREKLQKLGEGEGSMTKEEFTKMKQELEAEYLAIFKKTVAMHEVFLCRVAAHPILRRDLNFHVFLEYNQDLSVRGKNKKEKLEDFFKNMVKSADGVIVSGVKDVDDFFEHERTFLLEYHNRVKDASAKSDRMTRSHKSAADDYNRIGSSLYALGTQDSTDICKFFLKVSELFDKTRKIEARVSADEDLKLSDLLKYYLRESQAAKDLLYRRSRSLVDYENANKALDKARAKNKDVLQAETSQQLCCQKFEKISESAKQELIDFKTRRVAAFRKNLVELAELELKHAKGNLQLLQNCLAVLNGDT [SNX6]”, for which, in data set [1], the “solubility in G1/S (log2)” value stood at 0.426. In addition, the values for the melting temperature in data set [2] (cell cycle stage: G1/S) and in data set [2] (cell cycle stage: mitosis) were 51.1 °C and 50.1 °C, respectively. Besides, the “solubility change mitosis (log2)” value in data set [3] was -0.0637. For the same sequence, the thermal stability score in data set [4] (setting [5]) turned out to be 1.82; in data set [4] (cell cycle stage: mitosis) it was 0.524.
Turning to “MMPGPRPRKGPQARGQGVAAAKQMGLFMEFGPEDMLLGMDEAEDDEDLEAELLALTGEAQTTGKKPAPKGQAPLPMAHIEKLAADCMRDVEEEEEEEGLEEDAELLTELQEVLGVDEETEPLDGDEVADPGGSEEENGLEDTEPPVQTAVLTASAPAAQAGASQGLHALLEERIHNYREAAASAKEAGEAAKARRCERGLKTLESQLASVRRGRKINEDEIPPPVALGKRPLAPQEPANRSPETDPPAPPALESDNPSQPETSLPGISAQPVSDLDPDPRALLSSRQREYKVAALSAKRAGELDRARELMRIGKRFGAVLEALEKGQPVDLSAMPPAPEDLKPQQASQAPTAPSVIPPAVERVQPVMAPDVPATPVAPTESQTVLDALQQRLNKYREAGIQARSGGDERKARMHERIAKQYQDAIRAHRAGRKVNFAELPVPPGFPPIPGLESTMGVEEDAVAATLAAAEKLASAEDSAPADKDEDEPPGHLQGEPPAQAPVAKKPARPTVPSSQRLPEPRASSSKESPSPSVREQLALLEARKLQYQRAALQAKRSQDLEQAKAYLRVAKWLEAQIIQARSGRPVDLSKVPSPLTDEEGDFILIHHEDLRLSQKAEEVYAQLQKMLLEQQEKCLLFSKQFMHQGNVAETTRFEKLAQDRKKQLEILQLAQAQGLDPPTHHFELKTFQTVRIFSELNSTEMHLIIVRGMNLPAPPGVTPDDLDAFVRFEFHYPNSDQAQKSKTAVVKNTNSPEFDQLFKLNINRNHRGFKRVIQSKGIKFEIFHKGSFFRSDKLVGTAHLKLERLENECEIREIVEVLDGRKPTGGKLEVKVRLREPLSGQDVQMVTENWLVLEPRGL [CC2D1B]”, the “solubility in G1/S (log2)” value in data set [1] was 0.252. The figures for the melting temperature in data set [2] (cell cycle stage: G1/S) and in data set [2] (cell cycle stage: mitosis) were 50.4 °C and 50.3 °C, respectively. Further, the “solubility change mitosis (log2)” value in data set [3] was -0.000596. For the same sequence, the values for the thermal stability score in data set [4] (setting [5]) and in data set [4] (cell cycle stage: mitosis) were 0.395 and 0.256, respectively.
